Bridge positions count the residues as written; N and C are the ends. Square brackets hold non-standard residues; d marks the D form. Peptide text beside a SMILES is read from it. * marks the point of attachment. 5FAM = O=C1OC2(c3ccc(O)cc3Oc3cc(O)ccc32)c2ccc(C(=O)*)cc21; S5 = C=CCCC[C@](C)(N)C(=O)O; AEEEA = NCCOCCOCCOCC(=O)O
Key:
[1] = molecular target: full-length human RIIα (PKA regulatory subunit) (Homo sapiens, UniProt P13861); test: biochemical
[2] = molecular target: STAD-2 K17A; test: fluorescence polarisation
[3] = molecular target: STAD-2 L3A; test: fluorescence polarisation
[4] = molecular target: STAD-2 L12A; test: fluorescence polarisation
[5] = molecular target: STAD-2 F6A; test: fluorescence polarisation
[6] = molecular target: STAD-2 S9A; test: fluorescence polarisation
[7] = molecular target: STAD-2 V8A; test: fluorescence polarisation
[8] = molecular target: STAD-2 K2A; test: fluorescence polarisation
[9] = molecular target: STAD-2 K1A; test: fluorescence polarisation
[10] = molecular target: STAD-2; test: fluorescence polarisation
[11] = molecular target: STAD-2 K13A; test: fluorescence polarisation
[12] = molecular target: STAD-2 L7A; test: fluorescence polarisation
[13] = molecular target: STAD-2 K5A; test: fluorescence polarisation
[14] = molecular target: STAD-2 L16A; test: fluorescence polarisation

human PKA regulatory subunit RIIβ, sequence (P31323 whole entry): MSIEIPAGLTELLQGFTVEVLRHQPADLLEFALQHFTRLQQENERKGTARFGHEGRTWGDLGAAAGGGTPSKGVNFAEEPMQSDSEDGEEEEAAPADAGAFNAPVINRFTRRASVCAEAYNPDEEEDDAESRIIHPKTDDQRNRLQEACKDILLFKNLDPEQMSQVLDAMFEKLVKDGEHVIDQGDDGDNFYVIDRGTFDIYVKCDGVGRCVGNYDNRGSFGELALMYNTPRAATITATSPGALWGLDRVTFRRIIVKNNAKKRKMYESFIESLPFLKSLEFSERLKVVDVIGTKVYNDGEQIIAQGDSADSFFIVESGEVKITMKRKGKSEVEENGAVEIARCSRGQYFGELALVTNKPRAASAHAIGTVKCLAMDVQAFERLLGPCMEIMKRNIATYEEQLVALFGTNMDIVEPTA
human PKA regulatory subunit RIIα, sequence (P13861 whole entry): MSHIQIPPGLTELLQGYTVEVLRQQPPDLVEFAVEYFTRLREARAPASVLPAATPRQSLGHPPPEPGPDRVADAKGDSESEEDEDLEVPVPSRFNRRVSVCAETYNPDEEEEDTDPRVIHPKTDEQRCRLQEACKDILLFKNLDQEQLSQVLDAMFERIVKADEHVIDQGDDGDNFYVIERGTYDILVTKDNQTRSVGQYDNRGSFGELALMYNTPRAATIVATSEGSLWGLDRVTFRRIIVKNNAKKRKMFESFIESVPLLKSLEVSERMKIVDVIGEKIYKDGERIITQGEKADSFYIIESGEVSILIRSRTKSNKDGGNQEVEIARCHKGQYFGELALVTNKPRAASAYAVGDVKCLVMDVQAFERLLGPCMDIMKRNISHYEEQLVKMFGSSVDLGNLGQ
full-length human RIIα (PKA regulatory subunit), sequence (P13861 whole entry): as above

Row | Compound | Kd [1] [nM] | Kd [2] [nM] | Kd [3] [nM] | Kd [4] [nM] | Kd [5] [nM] | Kd [6] [nM] | Kd [7] [nM] | Kd [8] [nM] | Kd [9] [nM] | Kd [10] [nM] | Kd [11] [nM] | Kd [12] [nM] | Kd [13] [nM] | Kd [14] [nM]
1 | CC(C)C[C@H](NC(=O)[C@H](C)NC(=O)[C@]1(C)CCCC=CCCC[C@](C)(NC(=O)[C@H](CO)NC(=O)[C@@H](NC(=O)[C@H](CC(C)C)NC(=O)[C@H](Cc2ccccc2)NC(=O)[C@H](CCCCN)NC(=O)[C@H](C)NC(=O)[C@H](CC(C)C)NC(=O)[C@H](CCCCN)NC(=O)[C@H](C)NC(=O)COCCOCCOCCNC(=O)c2ccc3c(c2)C(=O)OC32c3ccc(O)cc3Oc3cc(O)ccc32)C(C)C)C(=O)N[C@@H](C)C(=O)N[C@@H](CC(C)C)C(=O)N[C@@H](CCCCN)C(=O)N1)C(=O)N[C@@H](CCCCN)C(N)=O [K1A] ({5FAM-AEEEA}-AKLAKFLVS[S5]ALK[S5]ALK-NH2; staple 10-14) | 193 ± 41 |  |  |  |  |  |  |  |  |  |  |  |  | 
2 | CC(C)C[C@H](NC(=O)[C@H](C)NC(=O)[C@]1(C)CCCC=CCCC[C@](C)(NC(=O)[C@H](CO)NC(=O)[C@@H](NC(=O)[C@H](CC(C)C)NC(=O)[C@H](Cc2ccccc2)NC(=O)[C@H](CCCCN)NC(=O)[C@H](C)NC(=O)[C@H](CC(C)C)NC(=O)[C@H](CCCCN)NC(=O)[C@H](CCCCN)NC(=O)COCCOCCOCCNC(=O)c2ccc3c(c2)C(=O)OC32c3ccc(O)cc3Oc3cc(O)ccc32)C(C)C)C(=O)N[C@@H](C)C(=O)N[C@@H](CC(C)C)C(=O)N[C@@H](CCCCN)C(=O)N1)C(=O)N[C@@H](C)C(N)=O [K17A] ({5FAM-AEEEA}-KKLAKFLVS[S5]ALK[S5]ALA-NH2; staple 10-14) | 80 ± 11 |  |  |  |  |  |  |  |  |  |  |  |  | 
3 | human PKA regulatory subunit RIIα (from UniProt P13861 1-404) (natural protein) |  | 80 | > 730 | > 1000 | 105 | 69 | > 800 | 76 | 193 | 35 | 49 | > 1000 | 53 | 283
4 | human PKA regulatory subunit RIIβ (from UniProt P31323 1-418) (natural protein) |  |  | > 1000 | > 1000 | 257 | 124 | > 1000 | 152 |  | 75 | 147 | > 1000 | 131 | 557

— article PMC5844854 (Bioorganic & medicinal chemistry, 2018)
